Positions count from the first letter of the chain named. In names and notes the source's numbering stands. Read-outs that look alike come from different tables or passages of the source. Values belong to the binder of their own block, whether it stands above or below them.
What was measured:
[1] = target: T1, full length extracellular domain of human-CD73 with C-terminal polyhistidine tag (residues 26-546) (human, UniProt P21589 26-546); assay: SEC, 1:1 molar mix 5.5 uM each
T1 construct: range 26-546; also called hCD73-his; CD73-his
T1 sequence (looked up): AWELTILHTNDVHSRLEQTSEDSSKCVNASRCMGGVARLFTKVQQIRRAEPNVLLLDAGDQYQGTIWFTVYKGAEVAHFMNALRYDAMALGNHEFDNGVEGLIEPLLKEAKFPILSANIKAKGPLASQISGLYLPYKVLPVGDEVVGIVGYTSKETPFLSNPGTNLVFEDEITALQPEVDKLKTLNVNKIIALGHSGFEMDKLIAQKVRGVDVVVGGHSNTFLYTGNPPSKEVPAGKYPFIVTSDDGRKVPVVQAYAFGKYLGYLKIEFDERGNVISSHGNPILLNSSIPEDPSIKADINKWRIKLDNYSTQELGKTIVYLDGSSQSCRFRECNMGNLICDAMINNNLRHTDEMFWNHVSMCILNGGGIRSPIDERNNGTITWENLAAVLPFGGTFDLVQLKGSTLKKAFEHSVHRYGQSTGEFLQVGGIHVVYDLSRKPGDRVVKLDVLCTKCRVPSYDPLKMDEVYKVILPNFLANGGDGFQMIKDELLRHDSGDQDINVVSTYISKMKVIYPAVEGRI
Protocol: The oligomeric state of CD73/antibody complexes were examined by size-exclusion chromatography coupled to an in-line multi-angle light scattering detector (SEC-MALS). Isocratic separations were performed on a Shodex PROTEIN KW-803 column connected to an Prominence Shimadzu UFLC in buffer containing 200 mM K₂HPO₄, 150 mM NaCl, pH 6.8, containing 0.02% Na azide (0.1 μm filtered) running at 0.5 mL/min. Samples were injected onto the column using a SIL-20AC Prominence Shimadzu autosampler, and data were obtained from three online detectors connected in series: a Prominence SPD-20AD diode array UV/vis spectrophotometer followed by a Wyatt miniDAWN™ TREOS Multi-Angle Light Scattering Detector then a Wyatt Optilab T-rEX Refractive Index Detector. Data were collected and analyzed using Astra (Wyatt) and Labsolutions (Shimadzu) software.
CD73.4 antibodies having the heavy chain constant regions set forth in Table 14 were also tested for formation of high molecular weight complexes by SEC-MALS and DLS experiments, as described in Example 3.

[2] = target: T2, human CD73 on human tumor cell lines (human, UniProt P21589 27-549); assay: cell-based or functional assay
T2 sequence (looked up): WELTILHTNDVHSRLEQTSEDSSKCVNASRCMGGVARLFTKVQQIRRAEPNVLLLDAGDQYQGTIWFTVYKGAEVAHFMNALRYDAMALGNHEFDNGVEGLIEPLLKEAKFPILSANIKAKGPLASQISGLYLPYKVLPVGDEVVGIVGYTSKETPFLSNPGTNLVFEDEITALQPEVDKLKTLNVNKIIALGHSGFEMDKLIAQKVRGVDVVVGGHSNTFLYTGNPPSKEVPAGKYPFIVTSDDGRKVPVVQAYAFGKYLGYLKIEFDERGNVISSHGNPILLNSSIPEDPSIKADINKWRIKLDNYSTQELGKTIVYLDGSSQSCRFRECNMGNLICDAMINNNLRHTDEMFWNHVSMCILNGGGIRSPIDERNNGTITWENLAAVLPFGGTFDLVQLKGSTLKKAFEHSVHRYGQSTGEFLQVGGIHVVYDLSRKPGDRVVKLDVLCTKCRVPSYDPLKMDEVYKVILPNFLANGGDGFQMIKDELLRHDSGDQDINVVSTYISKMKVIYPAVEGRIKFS

[3] = target: T2, human CD73 on human tumor cell lines; assay: cell-based or functional assay; remark: listed apart in the source

UV % Peak1 <12.9 min [1]: 30.6% | UV % Peak4 16.7-19.3 min (free mAb) [1]: 33.7% | UV % Peak5 >19.3 min [1]: 3.2% | T1/2 internalization, Calu6 [2]: 21.3 min | T1/2 internalization, NCI-H292 [2]: 17.6 min | Ymax internalization, Calu6 [2]: 81.2% | Ymax internalization, NCI-H292 [2]: 91.4%
B1: CD73.4-IgG2.3-plusTHT (antibody)
heavy: QVQLVESGGGVVQPGRSLRLSCAASGFTFSNYGMHWVRQAPGKGLEWVAVILYDGSNKYYPDSVKGRFTISRDNSKNTLYLQMNSLRAEDTAVYYCARGGSSWYPDSFDIWGQGTMVTVSSASTKGPSVFPLAPCSRSTSESTAALGCLVKDYFPEPVTVSWNSGALTSGVHTFPAVLQSSGLYSLSSVVTVPSSNFGTQTYTCNVDHKPSNTKVDKTVERKSCVETHTCPPCPAPPVAGPSVFLFPPKPKDTLMISRTPEVTCVVVDVSHEDPEVQFNWYVDGVEVHNAKTKPREEQFNSTFRVVSVLTVVHQDWLNGKEYKCKVSNKGLPAPIEKTISKTKGQPREPQVYTLPPSREEMTKNQVSLTCLVKGFYPSDIAVEWESNGQPENNYKTTPPMLDSDGSFFLYSKLTVDKSRWQQGNVFSCSVMHEALHNHYTQKSLSLSPGK
light: not shown
notes: also called mAb-CD73.4-IgG2.3-plusTHT; CD73.4-Vh-hHC-IgG2.3-plusTHT

T1/2 internalization, Calu6 [2]: 17.2 min | T1/2 internalization, NCI-H292 [2]: 15.4 min | Ymax internalization, Calu6 [2]: 80.2% | Ymax internalization, NCI-H292 [2]: 89.6%
B2: CD73.4-IgG2.5-plusTHT (antibody)
heavy: B1 heavy with C135S, S223C
light: not shown
notes: also called mAb-CD73.4-IgG2.5plusTHT/LC; CD73.4-Vh-hHC-IgG2.5plusTHT/LC

T1/2 internalization, Calu6 [2]: 20.1 min | T1/2 internalization, NCI-H292 [2]: 16.3 min | Ymax internalization, Calu6 [2]: 81.7% | Ymax internalization, NCI-H292 [2]: 91.6%
B3: CD73.4-IgG2.3-plusGGG (antibody)
heavy: B1 heavy with T227G, H228G, T229G
light: not shown
notes: also called mAb-CD73.4-IgG2.3-plusGGG; CD73.4-Vh-hHC-IgG2.3-plusGGG

T1/2 internalization, Calu6 [2]: 17 min | T1/2 internalization, NCI-H292 [2]: 15.4 min | Ymax internalization, Calu6 [2]: 76% | Ymax internalization, NCI-H292 [2]: 90.8%
B4: CD73.4-IgG2.5G1-KH (antibody)
heavy: QVQLVESGGGVVQPGRSLRLSCAASGFTFSNYGMHWVRQAPGKGLEWVAVILYDGSNKYYPDSVKGRFTISRDNSKNTLYLQMNSLRAEDTAVYYCARGGSSWYPDSFDIWGQGTMVTVSSASTKGPSVFPLAPSSRSTSESTAALGCLVKDYFPEPVTVSWNSGALTSGVHTFPAVLQSSGLYSLSSVVTVPSSNFGTQTYTCNVDHKPSNTKVDKTVERKCCVECPPCPAPPVAGPSVFLFPPKPKDTLMISRTPEVTCVVVDVSHEDPEVKFNWYVDGVEVHNAKTKPREEQYNSTYRVVSVLTVLHQDWLNGKEYKCKVSNKALPAPIEKTISKAKGQPREPQVYTLPPSREEMTKNQVSLTCLVKGFYPSDIAVEWESNGQPENNYKTTPPVLDSDGSFFLYSKLTVDKSRWQQGNVFSCSVMHEALHNHYTQKSLSLSPGK
light: not shown
notes: also called mAb-CD73.4-IgG2.5G1-KH; CD73.4-Vh-hHC-IgG2.5G1-KH

T1/2 internalization, Calu6 [2]: 23.8 min | T1/2 internalization, NCI-H292 [2]: 16.8 min | Ymax internalization, Calu6 [2]: 81.6% | Ymax internalization, NCI-H292 [2]: 91.6%
B5: CD73.4-IgG2.3G1-KH (antibody)
heavy: B4 heavy with S135C, C223S
light: not shown
notes: also called mAb-CD73.4-IgG2.3G1-KH; CD73.4-Vh-hHC-IgG2.3G1-KH

T1/2 internalization, Calu6 [2]: 20.9 min | T1/2 internalization, NCI-H292 [2]: 18.3 min | Ymax internalization, Calu6 [2]: 79% | Ymax internalization, NCI-H292 [2]: 89.6%
B6: CD73.4-IgG2.5 (antibody)
heavy: B4 heavy with K274Q, Y296F, Y300F, L309V, A327G, A339T, V397M
light: not shown
notes: also called mAb-CD73.4-IgG2.5; CD73.4-Vh-hHC-IgG2.5

T1/2 internalization, Calu6 [2]: 21.2 min | T1/2 internalization, NCI-H292 [2]: 18 min | Ymax internalization, Calu6 [2]: 79.6% | Ymax internalization, NCI-H292 [2]: 90.9%
B7: CD73.4-IgG2.5G1.1f-KH (antibody)
heavy: B4 heavy with A330S, P331S
light: not shown
notes: also called mAb-CD73.4-IgG2.5G1.1f-KH; CD73.4-Vh-hHC-IgG2.5G1.1f-KH

T1/2 internalization, Calu6 [3]: 34 min | T1/2 internalization, NCI-H292 [3]: 15.8 min | T1/2 internalization, NCI-H1437 [3]: 19 min | T1/2 internalization, NCI-H1437 (no wash) [3]: 20.5 min | T1/2 internalization, SNU-C1 [3]: 29.7 min | T1/2 internalization, SNU-C1 (no wash) [3]: 61.5 min | Ymax internalization, Calu6 [3]: 76.8% | Ymax internalization, NCI-H292 [3]: 77.6% | T1/2 internalization, Calu6 [2]: 21 min | T1/2 internalization, NCI-H292 [2]: 16.6 min | Ymax internalization, Calu6 [2]: 81% | Ymax internalization, NCI-H292 [2]: 90.3%
B8: CD73.4-IgG2-C219S-IgG1.1f (antibody)
heavy: B4 heavy with S135C, C223S, A330S, P331S
light: not shown
notes: also called CD73.4-IgG2CS-IgG1.1f; CD73.4-IgG2.3G1.1f-KH

From patent US20220106400A1 (Bristol-Myers Squibb, published 2022)
